Results taken from patent US20200297818A1 (ZEALAND PHARMA A S, published 2020).
*1 amine or outer side, *2 acyl side, *3 side chain or, on linkers, in order; H or OH if unused. Side-chain parts run from the residue outwards. [ ]: non-standard residue; d: D form. The star is where a group is joined. C20 diacid = O=C(O)CCCCCCCCCCCCCCCCCCC(=O)*; γGlu = O=C(O)[C@H](CCC(=O)[*:2])N[*:1]; AEEA = NCCOCCOCC(=O)O; Aib = CC(C)(N)C(=O)O

B1: Compound 43 (peptide)
peptide: H-H[Aib]EGSFTSELATILDK([AEEA-AEEA-γGlu-C20 diacid])KAARDFIAWLIEHKITD-OH
SMILES: CC[C@H](C)[C@H](NC(=O)[C@H](Cc1ccccc1)NC(=O)[C@H](CC(=O)O)NC(=O)[C@H](CCCNC(=N)N)NC(=O)[C@H](C)NC(=O)[C@H](C)NC(=O)[C@H](CCCCN)NC(=O)[C@H](CCCCNC(=O)COCCOCCNC(=O)COCCOCCNC(=O)CC[C@H](NC(=O)CCCCCCCCCCCCCCCCCCC(=O)O)C(=O)O)NC(=O)[C@H](CC(=O)O)NC(=O)[C@H](CC(C)C)NC(=O)[C@@H](NC(=O)[C@@H](NC(=O)[C@H](C)NC(=O)[C@H](CC(C)C)NC(=O)[C@H](CCC(=O)O)NC(=O)[C@H](CO)NC(=O)[C@@H](NC(=O)[C@H](Cc1ccccc1)NC(=O)[C@H](CO)NC(=O)CNC(=O)[C@H](CCC(=O)O)NC(=O)C(C)(C)NC(=O)[C@@H](N)Cc1c[nH]cn1)[C@@H](C)O)[C@@H](C)O)[C@@H](C)CC)C(=O)N[C@@H](C)C(=O)N[C@@H](Cc1c[nH]c2ccccc12)C(=O)N[C@@H](CC(C)C)C(=O)N[C@H](C(=O)N[C@@H](CCC(=O)O)C(=O)N[C@@H](Cc1c[nH]cn1)C(=O)N[C@@H](CCCCN)C(=O)N[C@H](C(=O)N[C@H](C(=O)N[C@@H](CC(=O)O)C(=O)O)[C@@H](C)O)[C@@H](C)CC)[C@@H](C)CC
B2: Compound 46 (peptide)
peptide: H-H[Aib]EGTFTSELATILDEQAAK([AEEA-AEEA-γGlu-C20 diacid])DFIAWLIEHKITD-OH
SMILES: CC[C@H](C)[C@H](NC(=O)[C@H](Cc1ccccc1)NC(=O)[C@H](CC(=O)O)NC(=O)[C@H](CCCCNC(=O)COCCOCCNC(=O)COCCOCCNC(=O)CC[C@H](NC(=O)CCCCCCCCCCCCCCCCCCC(=O)O)C(=O)O)NC(=O)[C@H](C)NC(=O)[C@H](C)NC(=O)[C@H](CCC(N)=O)NC(=O)[C@H](CCC(=O)O)NC(=O)[C@H](CC(=O)O)NC(=O)[C@H](CC(C)C)NC(=O)[C@@H](NC(=O)[C@@H](NC(=O)[C@H](C)NC(=O)[C@H](CC(C)C)NC(=O)[C@H](CCC(=O)O)NC(=O)[C@H](CO)NC(=O)[C@@H](NC(=O)[C@H](Cc1ccccc1)NC(=O)[C@@H](NC(=O)CNC(=O)[C@H](CCC(=O)O)NC(=O)C(C)(C)NC(=O)[C@@H](N)Cc1c[nH]cn1)[C@@H](C)O)[C@@H](C)O)[C@@H](C)O)[C@@H](C)CC)C(=O)N[C@@H](C)C(=O)N[C@@H](Cc1c[nH]c2ccccc12)C(=O)N[C@@H](CC(C)C)C(=O)N[C@H](C(=O)N[C@@H](CCC(=O)O)C(=O)N[C@@H](Cc1c[nH]cn1)C(=O)N[C@@H](CCCCN)C(=O)N[C@H](C(=O)N[C@H](C(=O)N[C@@H](CC(=O)O)C(=O)O)[C@@H](C)O)[C@@H](C)CC)[C@@H](C)CC
B3: Compound 45 (peptide)
peptide: H-H[Aib]EGSFTSELATILDEQAAK([AEEA-AEEA-γGlu-C20 diacid])DFIAWLIEHKITD-OH
SMILES: CC[C@H](C)[C@H](NC(=O)[C@H](Cc1ccccc1)NC(=O)[C@H](CC(=O)O)NC(=O)[C@H](CCCCNC(=O)COCCOCCNC(=O)COCCOCCNC(=O)CC[C@H](NC(=O)CCCCCCCCCCCCCCCCCCC(=O)O)C(=O)O)NC(=O)[C@H](C)NC(=O)[C@H](C)NC(=O)[C@H](CCC(N)=O)NC(=O)[C@H](CCC(=O)O)NC(=O)[C@H](CC(=O)O)NC(=O)[C@H](CC(C)C)NC(=O)[C@@H](NC(=O)[C@@H](NC(=O)[C@H](C)NC(=O)[C@H](CC(C)C)NC(=O)[C@H](CCC(=O)O)NC(=O)[C@H](CO)NC(=O)[C@@H](NC(=O)[C@H](Cc1ccccc1)NC(=O)[C@H](CO)NC(=O)CNC(=O)[C@H](CCC(=O)O)NC(=O)C(C)(C)NC(=O)[C@@H](N)Cc1c[nH]cn1)[C@@H](C)O)[C@@H](C)O)[C@@H](C)CC)C(=O)N[C@@H](C)C(=O)N[C@@H](Cc1c[nH]c2ccccc12)C(=O)N[C@@H](CC(C)C)C(=O)N[C@H](C(=O)N[C@@H](CCC(=O)O)C(=O)N[C@@H](Cc1c[nH]cn1)C(=O)N[C@@H](CCCCN)C(=O)N[C@H](C(=O)N[C@H](C(=O)N[C@@H](CC(=O)O)C(=O)O)[C@@H](C)O)[C@@H](C)CC)[C@@H](C)CC

What follows are binders tested against human glucagon-like peptide 1 receptor (GLP-1 R) (human, UniProt P43220 24-463) (assay: cell-based or functional assay).

Binder | EC50 GLP-1 (nM); cAMP response [nM]
B1 | 0.096
B2 | 0.26
H-H[Aib]EGSFTSELATILEGK([AEEA-AEEA-γGlu-C20 diacid])AARDFIAWLIEHKITD-OH [Compound 44] | 0.063
B3 | 1.4

The binders below were run against T1, human GLP-2 receptor (hGLP2-R) (human, UniProt O95838 1-553) (assay: cell-based or functional assay).
T1 sequence (looked up): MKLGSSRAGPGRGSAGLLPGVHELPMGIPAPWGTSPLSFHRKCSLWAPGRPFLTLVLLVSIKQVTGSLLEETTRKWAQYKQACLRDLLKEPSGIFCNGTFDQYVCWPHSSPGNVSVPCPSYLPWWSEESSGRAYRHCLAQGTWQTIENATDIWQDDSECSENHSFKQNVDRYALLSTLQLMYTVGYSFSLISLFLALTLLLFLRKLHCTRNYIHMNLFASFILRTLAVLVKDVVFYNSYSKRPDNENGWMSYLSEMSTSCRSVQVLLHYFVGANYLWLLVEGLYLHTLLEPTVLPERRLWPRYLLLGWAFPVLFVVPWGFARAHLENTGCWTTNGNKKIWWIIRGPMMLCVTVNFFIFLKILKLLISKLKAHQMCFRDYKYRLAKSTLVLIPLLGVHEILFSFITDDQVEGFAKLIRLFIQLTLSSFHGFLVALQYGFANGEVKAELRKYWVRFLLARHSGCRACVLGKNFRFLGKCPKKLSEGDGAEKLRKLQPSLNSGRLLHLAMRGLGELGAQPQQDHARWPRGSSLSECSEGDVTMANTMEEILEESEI

Binder | EC50 GLP-2 (nM); cAMP response [nM]
B1 | 0.15
B2 | 0.38
H-H[Aib]EGSFTSELATILEGK([AEEA-AEEA-γGlu-C20 diacid])AARDFIAWLIEHKITD-OH [Compound 44] | 0.14
B3 | 0.36
